Columns and labels:
Assay in all cases: Mass spectroscopy proteomics, semi-quantitative binding affinity of serum proteins (plaqueproteome, Table 2)
Details in all cases: higher number = stronger affinity
[1] = target: T1, Abeta-42 plaque particles (Homo sapiens, UniProt P05067)
T1 construct: Abeta 1-42
Method in brief: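 AD patient serum or plasma (50% in PBS) was incubated with Abeta-42 aggregates (30 μg) for 1 h at 37 °C, then stained with Thioflavin S for 30 min. Labeled particles were FACS-sorted, trypsin/Lys-C digested overnight and analyzed by MS/MS. Sequest searched human UniProt; Scaffold/Protein Prophet validated the identifications.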

[2] = tested on: High Density cholesterol (Chl Large) plaque particles; set-up: species or system human
Method in brief: (§1)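 Serum or plasma from atherosclerotic subjects, as 50% serum, was incubated with 30 μg cholesterol aggregates for 1 h at 37 °C. High- and low-density particles were then flow-sorted, trypsin-digested and analysed by MS/MS. Proteins were identified by Sequest search against human UniProt and validated with Protein Prophet.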

[3] = tested on: Low density cholesterol (Chl small) plaque particles; set-up: species or system human
Method in brief: as §1

[4] = target: T2, alpha-synuclein plaque particles (Homo sapiens, UniProt P37840)
T2 construct: 140 amino acids polypeptide
Method in brief: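 AD-subject plasma or serum (800 μL of 50%) mixed with 30 μg preformed alpha-synuclein aggregates for 1 h at 37 °C; Thioflavin S-positive particles isolated by flow sorting. After reduction, acrylamide alkylation and overnight tryptic digestion, serum proteins identified by MS/MS with Sequest and Scaffold.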

Tau plaque particles = tested on: Tau plaque particles; set-up: species or system human
Method in brief: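 Serum or plasma proteins captured on Thioflavin S-labelled Tau plaque particles (Tau-74, Tau-275 oligomers preformed in PBS at 37° C for 2 h; 1 h co-incubation at 37° C) were isolated by FACS sorting, then tryptically digested and identified by MS/MS (Sequest, human UniProt, strict trypsin).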

| Molecule | Semi-quantitative analysis of proteins binding to different plaque particles: Abeta-42 [1] | Semi-quantitative analysis of proteins binding to different plaque particles: Chl Large [2] | Semi-quantitative analysis of proteins binding to different plaque particles: Chl small [3] | Semi-quantitative analysis of proteins binding to different plaque particles: Synuclein [4] | Semi-quantitative analysis of proteins binding to different plaque particles: Tau (Tau plaque particles) |
| --- | --- | --- | --- | --- | --- |
| Cluster of Interleukin enhancer-binding factor 3 (protein, UniProt Q12906 1-894, looked up) Interleukin enhancer-binding …: MRPMRIFVNDDRHVMAKHSSVYPTQEELEAVQNMVSHTERALKAVSDWIDEQEKGSSEQAESDNMDVPPEDDSKEGAGEQKTEHMTRTLRGVMRVGLVAKGLLLKGDLDLELVLLCKEKPTTALLDKVADNLAIQLAAVTEDKYEILQSVDDAAIVIKNTKEPPLSLTIHLTSPVVREEMEKVLAGETLSVNDPPDVLDRQKCLAALASLRHAKWFQARANGLKSCVIVIRVLRDLCTRVPTWGPLRGWPLELLCEKSIGTANRPMGAGEALRRVLECLASGIVMPDGSGIYDPCEKEATDAIGHLDRQQREDITQSAQHALRLAAFGQLHKVLGMDPLPSKMPKKPKNENPVDYTVQIPPSTTYAITPMKRPMEEDGEEKSPSKKKKKIQKKEEKAEPPQAMNALMRLNQLKPGLQYKLVSQTGPVHAPIFTMSVEVDGNSFEASGPSKKTAKLHVAVKVLQDMGLPTGAEGRDSSKGEDSAEETEAKPAVVAPAPVVEAVSTPSAAFPSDATAEQGPILTKHGKNPVMELNEKRRGLKYELISETGGSHDKRFVMEVEVDGQKFQGAGSNKKVAKAYAALAALEKLFPDTPLALDANKKKRAPVPVRGGPKFAAKPHNPGFGMGGPMHNEVPPPPNLRGRGRGGSIRGRGRGRGFGGANHGGYMNAGAGYGSYGYGGNSATAGYSQFYSNGGHSGNASGGGGGGGGGSSGYGSYYQGDNYNSPVPPKHAGKKQPHGGQQKPSYGSGYQSHQGQQQSYNQSPYSNYGPPQGKQKGYNHGQGSYSYSNSYNSPGGGGGSDYNYESKFNYSGSGGRSGGNSYGSGGASYNPGSHGGYGGGSGGGSSYQGKQGGYSQSNYNSPGSGQNYSGPPSSYQSSQGGYGRNADHSMNYQYR | 4 | 0 | 0 | 0 | 0 |
| Interleukin enhancer-binding factor 3 (protein) MRPMRIFVNDDRHVMAKHSSVYPTQEELEAVQNMVSHTERALKAVSDWIDEQEKGSSEQAESDNMDVPPEDDSKEGAGEQKTEHMTRTLRGVMRVGLVAKGLLLKGDLDLELVLLCKEKPTTALLDKVADNLAIQLAAVTEDKYEILQSVDDAAIVIKNTKEPPLSLTIHLTSPVVREEMEKVLAGETLSVNDPPDVLDRQKCLAALASLRHAKWFQARANGLKSCVIVIRVLRDLCTRVPTWGPLRGWPLELLCEKSIGTANRPMGAGEALRRVLECLASGIVMPDGSGIYDPCEKEATDAIGHLDRQQREDITQSAQHALRLAAFGQLHKVLGMDPLPSKMPKKPKNENPVDYTVQIPPSTTYAITPMKRPMEEDGEEKSPSKKKKKIQKKEEKAEPPQAMNALMRLNQLKPGLQYKLVSQTGPVHAPIFTMSVEVDGNSFEASGPSKKTAKLHVAVKVLQDMGLPTGAEGRDSSKGEDSAEETEAKPAVVAPAPVVEAVSTPSAAFPSDATAEQGPILTKHGKNPVMELNEKRRGLKYELISETGGSHDKRFVMEVEVDGQKFQGAGSNKKVAKAYAALAALEKLFPDTPLALDANKKKRAPVPVRGGPKFAAKPHNPGFGMGGPMHNEVPPPPNLRGRGRGGSIRGRGRGRGFGGANHGGYMNAGAGYGSYGYGGNSATAGYSQFYSNGGHSGNASGGGGGGGGGSSGYGSYYQGDNYNSPVPPKHAGKKQPHGGQQKPSYGSGYQSHQGQQQSYNQSPYSNYGPPQGKQKGYNHGQGSYSYSNSYNSPGGGGGSDYNYESKFNYSGSGGRSGGNSYGSGGASYNPGSHGGYGGGSGGGSSYQGKQGGYSQSNYNSPGSGQNYSGPPSSYQSSQGGYGRNADHSMNYQYR | 4 | 0 | 0 | 0 | 0 |

Source: patent publication US9618524B2, “Method, composition, isolation and identification of a plaque particle and related biomarker” (Plaxgen Inc., priority 2012, dated 2017)
